Source: patent publication US20220227875A1 (UNIVERSITY OF FLORIDA RESEARCH FOUNDATION, published 2022)

B1: K1-70 thyroid blocking antibody (commercially available K1-70 antibody) (antibody, V domains shown)
VH: EVQLVQSGAEVKKPGQSLKISCKASGYSLTDNWIGWVRQKPGKGLEWMGIIYPGDSDTRYSPSFQGQVTISADKSINTAYLQWSSLKASDTAIYYCVGLDWNYNPLRYWGPGTLVTVSS
VL: QSVLTQPPSVSAAPGQKVTISCSGSSSDIGSNYVSWYQQFPGTAPKLLIYDNNKRPSAIPDRFSGSKSGTSATLGITGLQTGDEADYYCGTWDSRLGIAVFGGGTQLTVLG

Columns and labels:
[1] = target: human thyroid-stimulating hormone receptor (TSHR) (human) (UniProt P16473); test: cell-based or functional assay
[2] = target: human thyroid-stimulating hormone receptor (TSHR) (human, UniProt P16473 21-764); test: cell-based or functional assay

Molecule	cAMP levels in HEK-TSHR cells, EC50 [1]	inhibition of M22 (100 ng/ml)-induced cAMP in HEK-TSHR cells, IC50 [2]	inhibition of TSH (150 ng/ml)-induced cAMP in HEK-TSHR cells, IC50 [2]
recombinant thyroid-stimulating hormone (TSH) (ligand)	0.168 µg/mL	–	–
thyroid-stimulating antibody M22	42.5 µg/mL	–	–
B1	–	1.38 µg/mL	1.18 µg/mL
